Earlier results in paper PMC12071944, “Interaction Between Glucagon-like Peptide 1 and Its Analogs with Amyloid-β Peptide Affects Its Fibrillation and Cytotoxicity” (International Journal of Molecular Sciences, 2025).

Tested on: AD patients
Conditions: human, in vivo
Description: Worldwide, approximately 416 million individuals are affected by AD dementia, prodromal AD, or preclinical AD, accounting for 22% of the population aged 50 years and older.

B1: lecanemab (antibody, chains of the INN, looked up, V domains shown)
VH: EVQLVESGGGLVQPGGSLRLSCSASGFTFSSFGMHWVRQAPGKGLEWVAYISSGSSTIYYGDTVKGRFTISRDNAKNSLFLQMSSLRAEDTAVYYCAREGGYYYGRSYYTMDYWGQGTTVTVSS
VL: DVVMTQSPLSLPVTPGAPASISCRSSQSIVHSNGNTYLEWYLQKPGQSPKLLIYKVSNRFSGVPDRFSGSGSGTDFTLRISRVEAEDVGIYYCFQGSHVPPTFGPGTKLEIK
**Q.** With B1 as the molecule, how does the side effects read?
**A.** brain edema and microhemorrhages
